Values quoted from earlier work in publication PMC9607845.
pKd: −log10 of the molar value. Where two headings read alike, the source gives them in different places.

Key:
[1] = target: p63 peptide (Homo sapiens) (UniProt Q9H3D4)
[2] = target: p73 peptide (Homo sapiens) (UniProt O15350)
[3] = target: p63 peptide (Homo sapiens) (UniProt Q9H3D4); remark: listed apart in the source
[4] = target: p73 peptide (Homo sapiens) (UniProt O15350); remark: listed apart in the source
[5] = target: Mig6 segment 1 peptide segment 1 (Homo sapiens) (UniProt Q9UJM3)
Sequence of Mig6 segment 1 peptide segment 1 (Homo sapiens) (Q9UJM3 334-363): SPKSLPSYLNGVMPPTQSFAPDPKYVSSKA

[6] = target: Mig6 segment 1 peptide (Homo sapiens) (UniProt Q9UJM3)
Sequence of Mig6 segment 1 peptide (Homo sapiens) (Q9UJM3 336-364): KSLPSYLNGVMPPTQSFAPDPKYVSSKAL

[7] = target: BCOR peptide (Homo sapiens) (UniProt Q6W2J9)
[8] = target: SMRT peptide (Homo sapiens) (UniProt Q9Y618)
Sequence of SMRT peptide (Homo sapiens) (Q9Y618 whole entry): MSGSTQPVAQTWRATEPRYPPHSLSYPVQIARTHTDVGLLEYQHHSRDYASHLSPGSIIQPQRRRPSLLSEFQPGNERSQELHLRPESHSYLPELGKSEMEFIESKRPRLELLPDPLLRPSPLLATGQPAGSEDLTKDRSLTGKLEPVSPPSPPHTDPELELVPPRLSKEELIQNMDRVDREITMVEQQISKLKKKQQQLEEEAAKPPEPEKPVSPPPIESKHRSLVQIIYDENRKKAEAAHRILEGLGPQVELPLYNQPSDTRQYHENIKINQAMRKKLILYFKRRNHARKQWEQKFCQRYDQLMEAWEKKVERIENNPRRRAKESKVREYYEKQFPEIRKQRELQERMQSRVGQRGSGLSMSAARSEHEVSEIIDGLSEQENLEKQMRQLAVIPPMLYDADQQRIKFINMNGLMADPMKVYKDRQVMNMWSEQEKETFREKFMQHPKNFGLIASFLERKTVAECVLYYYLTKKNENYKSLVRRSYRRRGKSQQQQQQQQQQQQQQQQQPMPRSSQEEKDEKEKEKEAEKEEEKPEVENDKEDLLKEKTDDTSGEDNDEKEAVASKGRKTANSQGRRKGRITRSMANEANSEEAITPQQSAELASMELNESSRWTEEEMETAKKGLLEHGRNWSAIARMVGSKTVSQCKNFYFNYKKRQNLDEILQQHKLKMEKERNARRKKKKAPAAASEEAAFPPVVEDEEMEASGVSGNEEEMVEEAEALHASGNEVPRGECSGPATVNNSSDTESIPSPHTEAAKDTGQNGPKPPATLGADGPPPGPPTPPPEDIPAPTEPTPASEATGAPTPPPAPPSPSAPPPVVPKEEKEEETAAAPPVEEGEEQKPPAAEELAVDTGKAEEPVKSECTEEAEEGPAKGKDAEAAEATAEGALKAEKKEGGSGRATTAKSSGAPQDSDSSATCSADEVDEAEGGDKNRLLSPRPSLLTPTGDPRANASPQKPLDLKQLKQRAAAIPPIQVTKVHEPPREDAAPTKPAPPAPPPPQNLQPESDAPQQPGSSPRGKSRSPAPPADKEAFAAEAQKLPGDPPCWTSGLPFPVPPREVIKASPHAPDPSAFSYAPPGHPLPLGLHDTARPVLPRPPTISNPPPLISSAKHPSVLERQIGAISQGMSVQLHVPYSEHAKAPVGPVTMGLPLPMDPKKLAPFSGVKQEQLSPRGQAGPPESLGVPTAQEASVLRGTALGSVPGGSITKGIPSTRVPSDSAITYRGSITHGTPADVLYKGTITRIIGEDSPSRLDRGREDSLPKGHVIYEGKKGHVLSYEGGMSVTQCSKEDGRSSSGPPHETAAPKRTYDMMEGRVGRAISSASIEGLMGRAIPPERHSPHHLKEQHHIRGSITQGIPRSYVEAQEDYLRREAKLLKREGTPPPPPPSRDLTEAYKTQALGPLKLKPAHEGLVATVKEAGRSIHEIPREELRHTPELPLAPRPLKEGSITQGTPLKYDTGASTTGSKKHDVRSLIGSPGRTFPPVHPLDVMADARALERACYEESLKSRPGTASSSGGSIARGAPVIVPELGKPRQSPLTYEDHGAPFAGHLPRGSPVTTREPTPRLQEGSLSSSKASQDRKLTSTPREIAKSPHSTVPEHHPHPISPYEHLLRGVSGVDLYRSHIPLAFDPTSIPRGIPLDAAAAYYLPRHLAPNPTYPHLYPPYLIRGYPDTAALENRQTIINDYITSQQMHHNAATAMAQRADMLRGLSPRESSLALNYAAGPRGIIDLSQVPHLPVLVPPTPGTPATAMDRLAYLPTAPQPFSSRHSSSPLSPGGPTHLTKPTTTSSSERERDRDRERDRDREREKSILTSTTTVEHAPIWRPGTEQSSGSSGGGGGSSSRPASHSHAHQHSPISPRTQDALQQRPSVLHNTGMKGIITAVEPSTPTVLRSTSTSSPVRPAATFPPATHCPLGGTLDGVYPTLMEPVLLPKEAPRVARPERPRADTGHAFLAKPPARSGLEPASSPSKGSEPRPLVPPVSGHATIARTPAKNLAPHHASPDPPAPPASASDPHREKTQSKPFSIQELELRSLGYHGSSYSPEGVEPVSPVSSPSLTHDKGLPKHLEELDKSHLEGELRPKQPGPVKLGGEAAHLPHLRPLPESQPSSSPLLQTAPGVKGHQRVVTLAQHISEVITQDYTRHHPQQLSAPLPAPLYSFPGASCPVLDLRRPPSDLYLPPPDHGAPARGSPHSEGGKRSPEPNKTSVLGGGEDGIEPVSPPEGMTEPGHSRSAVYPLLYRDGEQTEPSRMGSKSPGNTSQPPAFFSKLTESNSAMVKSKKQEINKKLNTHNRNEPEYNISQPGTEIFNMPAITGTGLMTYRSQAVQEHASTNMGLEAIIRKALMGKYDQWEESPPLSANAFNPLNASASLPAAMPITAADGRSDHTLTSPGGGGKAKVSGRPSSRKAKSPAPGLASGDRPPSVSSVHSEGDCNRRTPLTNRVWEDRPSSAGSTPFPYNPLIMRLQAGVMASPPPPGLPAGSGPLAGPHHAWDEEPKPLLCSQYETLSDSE

[9] = target: BCOR BCOR peptide (Homo sapiens) (UniProt Q6W2J9)
[10] = target: SMRT SMRT peptide (Homo sapiens) (UniProt Q9Y618)

Sequence of MDM2 MDM2N (Q00987 17-125): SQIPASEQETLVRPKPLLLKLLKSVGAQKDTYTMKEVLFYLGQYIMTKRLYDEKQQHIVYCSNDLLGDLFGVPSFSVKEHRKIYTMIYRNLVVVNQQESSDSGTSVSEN
Sequence of p63 peptide (Homo sapiens) (Q9H3D4 whole entry): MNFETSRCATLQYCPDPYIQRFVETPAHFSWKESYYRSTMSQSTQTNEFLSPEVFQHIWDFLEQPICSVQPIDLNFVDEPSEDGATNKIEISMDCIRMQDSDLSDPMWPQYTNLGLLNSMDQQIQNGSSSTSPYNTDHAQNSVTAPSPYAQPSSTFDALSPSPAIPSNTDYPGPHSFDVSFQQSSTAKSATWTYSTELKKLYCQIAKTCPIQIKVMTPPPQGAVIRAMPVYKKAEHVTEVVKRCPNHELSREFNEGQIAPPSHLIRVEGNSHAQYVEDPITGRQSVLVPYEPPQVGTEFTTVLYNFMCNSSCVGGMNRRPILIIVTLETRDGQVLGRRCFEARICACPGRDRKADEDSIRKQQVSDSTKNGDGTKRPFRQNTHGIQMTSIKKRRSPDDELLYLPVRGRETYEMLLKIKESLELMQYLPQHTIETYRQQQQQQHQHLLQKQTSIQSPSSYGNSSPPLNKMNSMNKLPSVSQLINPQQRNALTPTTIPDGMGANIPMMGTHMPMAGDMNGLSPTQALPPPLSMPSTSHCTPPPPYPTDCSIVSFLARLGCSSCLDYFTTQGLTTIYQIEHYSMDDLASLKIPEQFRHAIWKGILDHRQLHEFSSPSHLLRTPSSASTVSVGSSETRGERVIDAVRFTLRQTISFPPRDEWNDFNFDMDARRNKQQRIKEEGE
Sequence of p73 peptide (Homo sapiens) (O15350 whole entry): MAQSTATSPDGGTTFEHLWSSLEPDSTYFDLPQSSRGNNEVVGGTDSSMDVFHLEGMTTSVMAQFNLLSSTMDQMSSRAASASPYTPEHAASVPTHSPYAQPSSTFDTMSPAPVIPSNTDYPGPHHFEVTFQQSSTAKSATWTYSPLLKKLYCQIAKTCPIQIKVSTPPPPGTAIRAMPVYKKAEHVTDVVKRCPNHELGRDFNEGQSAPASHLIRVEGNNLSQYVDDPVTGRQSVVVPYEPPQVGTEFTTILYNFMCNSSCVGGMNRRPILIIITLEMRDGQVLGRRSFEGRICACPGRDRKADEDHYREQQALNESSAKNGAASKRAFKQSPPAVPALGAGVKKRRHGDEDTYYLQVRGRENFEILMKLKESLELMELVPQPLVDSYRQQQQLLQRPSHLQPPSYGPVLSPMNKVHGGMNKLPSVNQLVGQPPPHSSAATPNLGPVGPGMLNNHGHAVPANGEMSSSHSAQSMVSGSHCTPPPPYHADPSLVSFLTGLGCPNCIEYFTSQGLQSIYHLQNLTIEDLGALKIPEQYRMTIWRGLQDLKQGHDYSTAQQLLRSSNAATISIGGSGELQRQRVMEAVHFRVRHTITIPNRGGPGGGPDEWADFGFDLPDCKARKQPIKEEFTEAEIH

MDM2 N-terminal domain (from UniProt Q00987)
pKd [1]: 4.59 | pKd [2]: 5.85

MDM2 MDM2N (from UniProt Q00987)
pKd [3]: 4.59 | pKd [4]: 5.85

EGFR kinase domain C-lobe (from UniProt P00533)
pKd [5]: 4.89 | pKd [6]: 4.89

Bcl6 BTB (from UniProt P41182)
pKd [7]: 5.89 | pKd [8]: 4.96 | pKd [9]: 5.89 | pKd [10]: 4.96
